Experimental data from patent US20050154192A1 (published 2005).
Each block holds one molecule with its values, some of them ahead of it.

Columns and labels:
[1] = molecular target: Recombinant Human IL-13 Rα1/Fc Chimera (R&D) (human) (UniProt P78552); assay: SPR (BIACORE), same format; rat IgG control, by definition the 0% reference
[2] = molecular target: Recombinant Mouse IL-13 Rα1/Fc Chimera (R&D) (mouse) (UniProt O09030); assay: as above
[3] = molecular target: T1, IL13 receptor α1 on TF-1 cells (human, UniProt P78552 22-427); assay: cell-based or functional assay
T1 sequence (looked up): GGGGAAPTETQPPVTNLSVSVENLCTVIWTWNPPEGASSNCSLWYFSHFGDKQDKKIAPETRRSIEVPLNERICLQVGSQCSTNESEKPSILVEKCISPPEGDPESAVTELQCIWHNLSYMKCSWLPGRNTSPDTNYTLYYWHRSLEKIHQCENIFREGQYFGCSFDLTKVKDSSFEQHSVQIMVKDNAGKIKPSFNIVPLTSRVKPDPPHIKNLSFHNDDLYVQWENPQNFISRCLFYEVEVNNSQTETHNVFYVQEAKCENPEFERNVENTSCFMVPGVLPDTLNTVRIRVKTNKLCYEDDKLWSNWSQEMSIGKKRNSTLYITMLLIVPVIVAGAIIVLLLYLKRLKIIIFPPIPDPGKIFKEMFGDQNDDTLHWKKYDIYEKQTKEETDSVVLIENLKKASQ

[4] = molecular target: T2, human IL13 Rα1-Fc (fusion of the extracellular domain of human IL13 receptor α1 and an Fc fragment of human … (human, UniProt P78552 22-343)); assay: SPR (BIACORE), human IL13 Rα1-Fc immobilized on CM5 chip, antibody at 2, 10 and 50 µg/ml
T2 construct: extracellular domain; also called soluble IL13 receptor α1-Fc; not shown: human IgG1 Fc domain (cDNA from plasmid pM1304, WO97/42319), joined in frame over a HindIII site
T2 sequence (looked up): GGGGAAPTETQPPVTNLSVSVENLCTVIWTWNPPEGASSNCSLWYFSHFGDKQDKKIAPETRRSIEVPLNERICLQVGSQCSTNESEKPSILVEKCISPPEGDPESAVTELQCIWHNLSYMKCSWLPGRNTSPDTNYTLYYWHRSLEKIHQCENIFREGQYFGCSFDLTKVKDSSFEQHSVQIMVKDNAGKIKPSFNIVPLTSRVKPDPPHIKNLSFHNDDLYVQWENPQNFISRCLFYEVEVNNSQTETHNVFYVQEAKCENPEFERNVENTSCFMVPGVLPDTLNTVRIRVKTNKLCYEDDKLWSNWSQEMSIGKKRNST
Procedure: The association constant of the anti-IL13 Rα1 antibody prepared was determined using BIACORE. That is, a CM5 chip (Biacore CO., Ltd.) was activated for 7 minutes according to the manual of Biacore Co., Ltd. and then 100 μg/ml of the human IL13 Rα1-Fc prepared in Example 1 was immobilized thereon. An HBS-EP buffer solution (Biacore Co., Ltd) was flown at a flow rate of 20 μl/min, and then the association constants of four kinds of the antibodies diluted to 2, 10, and 50 μg/ml with the same buffer solution were obtained. The binding antibody was dissociated with a 0.1-M glycine hydrochloric acid buffer solution (pH 3.0) and the chip was then used again. The resulting data was analyzed using analyzing software, BIA evaluation, Biacore Co., Ltd., and the dissociation constant (Kd) thereof was calculated.

Chain of Recombinant Mouse IL-13 Rα1/Fc Chimera (R&D) (mouse) (O09030 26-340 limits assumed, change not shown): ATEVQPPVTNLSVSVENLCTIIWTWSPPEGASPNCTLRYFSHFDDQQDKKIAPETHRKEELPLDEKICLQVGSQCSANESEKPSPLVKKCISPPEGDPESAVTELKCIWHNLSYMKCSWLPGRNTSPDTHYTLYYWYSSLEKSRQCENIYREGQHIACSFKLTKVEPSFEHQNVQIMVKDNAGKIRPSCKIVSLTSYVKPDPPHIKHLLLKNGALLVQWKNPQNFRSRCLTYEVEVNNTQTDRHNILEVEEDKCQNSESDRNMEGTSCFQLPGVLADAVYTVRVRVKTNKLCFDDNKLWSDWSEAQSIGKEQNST

Human IL13/IL13 R binding inhibition rate (%) [1]: 0%
Mouse IL13/IL13 R binding inhibition rate (%) [2]: 0%
Molecule: rat IgG (control antibody)

IC50 (µg/mL) for cell response with IL 4 (1 ng/mL); TF-1 proliferation [3]: > 10 µg/mL
IC50 (µg/mL) for cell response with IL 13 (1 ng/mL); TF-1 proliferation [3]: 6.6 µg/mL
Kd [4]: 4.1 nM
B1: F997-13-1 antibody (antibody, IgG1, V domains shown)
VH: EVKLQQSGGGLVQPGRSMKLSCAASGFTFSNYGMAWVRQAPKKGLEWVAYISYDGGSTYYRDSVKGRFTISRDNAKSTLYLQMDSLRSEDTATYHCTTPHYGYKYWYFDFWGQGTTVTVSS
VL: DIQMTQSPASLSASLGETVTIECRASEDIYNGLAWYQQKPGKSPQLLIYHANSSHTGVPSRFSGSGSGTQYSLKIDSLQSEDVANYFCQQYYDYPTFGAGTKLELKR

IC50 (µg/mL) for cell response with IL 4 (1 ng/mL); TF-1 proliferation [3]: > 10 µg/mL
IC50 (µg/mL) for cell response with IL 13 (1 ng/mL); TF-1 proliferation [3]: 1.2 µg/mL
Kd [4]: 1.07 nM
B2: F997-20-1 antibody (antibody, IgG1, V domains shown)
VH: EVQLQQSGGGLVQPGRSLNLSCAASGFTFNDYYMAWVRQAPKKGLEWVATIIYDGTRTYYRDSVKGRFTISRDNAKSTLYLQMDSLRSEDTATYYCATPWGSWGQGTTVTVSS
VL: DIQMTQSPSSMPASLGERVTISCRASQGISNFLNWYQQKADGTIKPLIYYTSNLQSAVPSRFSGSGSGTDYSLTISSLEPEDFAMYYCQQYDSSPWTFGGGTKLEITR
